Laboratory results from article PMC8301994, “Kinetic Constraints in the Specific Interaction between Phosphorylated Ubiquitin and Proteasomal Shuttle Factors” (Biomolecules, 2021).
One block for each binder: values may come before it.

How the values were obtained:
Conditions in all cases: both partners purified
[1] = biological target: T1, S65-phosphorylated ubiquitin (human, UniProt P0CG48 1-76, phosphoserine at 65); assay: NMR CPMG relaxation dispersion; 15N-labeled Ubqln2-UBA 300 uM with 32 uM unlabeled pUb (~10% saturation); 20 mM HEPES, 150 mM NaCl, pH 7.4; two magnetic fields, global fit; kon and koff calculated from kex and the KD
T1 construct: ubiquitin, human; the cut product of the ubiquitin precursor; phosphorylated at S65 by PINK1; One chemical species that exchanges slowly between two conformations, pUbRL and pUbRT; The printed KD, kon and koff are defined for the pUbRL state; 15N-labelled or unlabelled, depending on the experiment; also called pUb; pUbRL (C-terminally relaxed conformation); source: E. coli BL21 star, purified; …

[2] = biological target: T1, S65-phosphorylated ubiquitin; assay: NMR CPMG relaxation dispersion; 15N-labeled Ubqln2-UBA 300 uM with 228 uM unlabeled pUb (~50% saturation); 20 mM HEPES, 150 mM NaCl, pH 7.4; two magnetic fields, global fit; kon and koff calculated from kex and the KD
[3] = biological target: T2, Human ubiquitin (unmodified) (human, UniProt P0CG48 1-76); assay: NMR titration; 1H-15N HSQC; 100 uM 15N-labeled Ub or pUb titrated with unlabeled UBA (22.7 to 340.4 uM); 20 mM HEPES, 150 mM NaCl, pH 7.4, 25 C; CSPs of pUb fitted with the revised model of coupled pUbRL/pUbRT equilibria (KD is for pUbRL), CSPs of Ub with a simple one-site model
T2 construct: ubiquitin, human; the cut product of the ubiquitin precursor; cloned into pET11a; 15N-labelled in the NMR titrations; also called unmodified Ub; source: E. coli BL21 star, purified (Sepharose SP, Sephacryl S100)

[4] = biological target: T1, S65-phosphorylated ubiquitin; assay: as above

koff [1]: 293 ± 27.5 s⁻¹
kon [1]: 6.8e+06 ± 600000 M⁻¹ s⁻¹
koff [2]: 678 ± 61 s⁻¹
kon [2]: 1.56e+07 ± 1.4e+06 M⁻¹ s⁻¹
Kd [3]: 33 ± 3.7 µM
Kd [4]: 43.3 ± 3.6 µM
B1: Human Ubqln2-UBA (residues 578 to 621) (domain or fragment, UniProt Q9UHD9 578-621, looked up)
chain: PEVRFQQQLEQLNAMGFLNREANLQALIATGGDINAAIERLLGS
notes: Ubiquilin-2 (Ubqln2), human, UBA domain, residues 578 to 621; synthetic gene with optimized codons in pET11a; 15N- or 15N/13C-labelled in some experiments; also called UBA domain from Ubqln2; Ubiqulin-2 UBA; source: E. coli BL21 (DE3), purified (Ni-NTA, Sephacryl S100; TEV cleavage, second Ni-NTA, Sephacryl S100); not shown: thioredoxin, N-terminal, cleaved; His6, N-terminal, cleaved

Kd [3]: 356 ± 56 µM
Kd [4]: 404 ± 38.8 µM
B2: Human Rad23A-UBA2 (residues 315 to 363) (domain or fragment)
chain: not shown
notes: UV excision repair protein Rad23A, human, second UBA domain (UBA2), residues 315 to 363; synthetic gene with optimized codons in pET11a; 15N-labelled in the CPMG experiment; also called Rad23-UBA2; second UBA domain (UBA2) from Rad23A; source: E. coli BL21 (DE3), purified (Ni-NTA, Sephacryl S100; TEV cleavage, second Ni-NTA, Sephacryl S100); not shown: thioredoxin, N-terminal, cleaved; His6, …
